In paper PMC2279226 one finds initial rate of nucleosome repositioning by RSC relative to the unmodified S28C control (competitive sliding assay, 54A18 DNA, 30 °C, 1 mM ATP) and Km for nucleosomes of ATP hydrolysis by RSC (real-time MDCC-PBP ATPase assay, 0.3 nM RSC, 36W36 nucleosomes), against the unmodified control data, which are given here for one substance.

In assay [1] the target is H3 (K9, 14, 18, 23) tetra-acetylated nucleosome (Xenopus laevis).
The target is the same in assay [2]. The source holds these as a separate data set.

In assay [1], RSC complex (from UniProt Q02206 1-625) gave an initial rate of nucleosome repositioning by RSC relative to the unmodified S28C control (competitive sliding assay, 54A18 DNA, 30 °C, 1 mM ATP) of 16 fold. Further, in assay [2], the Km for nucleosomes of ATP hydrolysis by RSC (real-time MDCC-PBP ATPase assay, 0.3 nM RSC, 36W36 nucleosomes), against the unmodified control was determined as 3 fold lower.
